The source of these data is paper PMC5344980, “PARP1 promotes gene expression at the post-transcriptional level by modulating the RNA-binding protein HuR”.

The target in data set [1] is T1, GST-HuR (human? (species ; plasmid …, UniProt Q15717 1-326). The data set can be described thus: EMSA; no PARP1; 3 mM MgCl2, 40 mM KCl, 5% glycerol, 2 mM DTT, 2 ug tRNA, 20 uM (so in the source) 5'-biotin RNA, 40 min at room temperature; 6% native acrylamide gel; protein 100-160. As to conditions: protein: recombinant; tags: GST; label: 5' biotin. (Mobility shift assays separate free from complexed probe on a gel.)

For data set [2], the target named is T1, GST-HuR. The data set can be described thus: EMSA; no PARP1; Kd value only in figure; 3 mM MgCl2, 40 mM KCl, 5% glycerol, 2 mM DTT, 2 ug tRNA, 20 uM (so in the source) 5'-biotin RNA, 40 min at room temperature; 6% native acrylamide gel; protein 100-160. The note with it: protein: recombinant; tags: GST; label: 5' biotin.
Data set [3] deals with T1, GST-HuR. The data set can be described thus: EMSA; no PARP1; several shifted bands; 3 mM MgCl2, 40 mM KCl, 5% glycerol, 2 mM DTT, 2 ug tRNA, 20 uM (so in the source) 5'-biotin RNA, 40 min at room temperature; 6% native acrylamide gel; protein 100-160. As to conditions: protein: recombinant; tags: GST; label: 5' biotin.
For the next data set, the target named is PARP1 (UniProt P09874 2-1014). Put plainly: EMSA; PARylation buffer, titrated sonicated DNA; no shifted bands; 3 mM MgCl2, 40 mM KCl, 5% glycerol, 2 mM DTT, 2 ug tRNA, 20 uM (so in the source) 5'-biotin RNA, 40 min at room temperature; 6% native acrylamide gel; protein 100-160. As to conditions: protein: recombinant; label: 5' biotin.
In data set [4] the target is T1, GST-HuR. Put plainly: EMSA; with PARP1 + PJ34; enhancement abolished; 3 mM MgCl2, 40 mM KCl, 5% glycerol, 2 mM DTT, 2 ug tRNA, 20 uM (so in the source) 5'-biotin RNA, 40 min at room temperature; 6% native acrylamide gel; protein 100-160. The note with it: protein: recombinant; tags: GST; label: 5' biotin.

T1 sequence (Q15717 whole entry): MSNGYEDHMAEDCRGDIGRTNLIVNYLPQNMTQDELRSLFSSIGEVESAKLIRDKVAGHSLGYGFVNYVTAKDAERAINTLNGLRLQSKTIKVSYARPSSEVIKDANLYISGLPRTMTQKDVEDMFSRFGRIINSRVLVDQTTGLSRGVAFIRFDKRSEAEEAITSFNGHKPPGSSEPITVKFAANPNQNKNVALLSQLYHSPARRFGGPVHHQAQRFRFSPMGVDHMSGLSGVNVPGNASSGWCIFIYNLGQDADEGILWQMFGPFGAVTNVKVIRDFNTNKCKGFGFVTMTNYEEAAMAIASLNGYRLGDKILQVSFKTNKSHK
Chain of PARP1 (P09874 2-1014): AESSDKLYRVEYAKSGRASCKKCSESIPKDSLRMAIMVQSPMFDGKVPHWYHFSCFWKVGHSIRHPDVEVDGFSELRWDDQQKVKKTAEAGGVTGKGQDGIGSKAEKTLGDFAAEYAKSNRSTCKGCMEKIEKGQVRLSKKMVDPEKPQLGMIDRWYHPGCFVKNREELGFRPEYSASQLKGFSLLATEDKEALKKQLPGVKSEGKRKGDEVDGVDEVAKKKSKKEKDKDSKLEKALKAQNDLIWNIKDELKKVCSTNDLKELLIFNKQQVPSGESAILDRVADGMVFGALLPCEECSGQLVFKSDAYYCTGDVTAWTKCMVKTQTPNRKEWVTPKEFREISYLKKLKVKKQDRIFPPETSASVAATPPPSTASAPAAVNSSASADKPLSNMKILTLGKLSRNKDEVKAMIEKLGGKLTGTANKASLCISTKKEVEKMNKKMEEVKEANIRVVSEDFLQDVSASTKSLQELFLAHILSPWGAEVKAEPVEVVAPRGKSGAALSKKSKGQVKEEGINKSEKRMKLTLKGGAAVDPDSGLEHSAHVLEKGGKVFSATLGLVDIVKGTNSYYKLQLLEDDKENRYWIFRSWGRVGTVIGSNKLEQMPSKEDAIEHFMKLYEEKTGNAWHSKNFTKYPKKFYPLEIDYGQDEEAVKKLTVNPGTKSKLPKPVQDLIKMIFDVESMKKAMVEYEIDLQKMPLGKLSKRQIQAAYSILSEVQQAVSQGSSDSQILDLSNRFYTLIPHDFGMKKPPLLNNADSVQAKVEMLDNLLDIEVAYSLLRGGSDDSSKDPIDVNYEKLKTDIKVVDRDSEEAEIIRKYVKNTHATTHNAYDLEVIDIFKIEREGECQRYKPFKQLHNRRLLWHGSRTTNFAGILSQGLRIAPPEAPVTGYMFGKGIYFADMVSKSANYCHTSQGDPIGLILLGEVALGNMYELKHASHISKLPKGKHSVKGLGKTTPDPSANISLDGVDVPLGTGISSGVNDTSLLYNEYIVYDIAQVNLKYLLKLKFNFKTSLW

Take GUGGACACAUUUAUUUAUUCAUGUA (ssRNA) [Cxcl2-ARE3 RNA oligo]: the binding result in the data set with GST-HuR [1] is “no binding”.
With AGUUCACUUAUUUAUUUAUCUAUGU (ssRNA) [Cxcl2-ARE1 RNA oligo], the binding result with GST-HuR [2] is reported as “binds”.
Turning to AUUUAUUUAUUUAUUUAUUUAUUUA (ssRNA) [AU-rich RNA oligo (tandem ARE)], the values for the binding result with GST-HuR [3] and with PARP1 were “binds” and “no binding”, respectively.
Consider CUAUGUAUUUAUUUAUUUAUUAAUU (ssRNA) [Cxcl2-ARE2 RNA oligo], for which, in the data set with GST-HuR [4], the binding result was “binds”.
